In patent US20050191294A1 (University of Texas, published 2005):

T1: IL-11Rα of human prostate cancer cells (LNCaP, MDA-PCa-2b) and human prostate cancer tissue sections (human, UniProt Q14626 23-422)
T1 construct: whole, on cells; Endogenous receptor; used both for cell assays and for tissue section overlays; also called IL-11 receptor alpha; interleukin-11 receptor alpha
T1 sequence (looked up): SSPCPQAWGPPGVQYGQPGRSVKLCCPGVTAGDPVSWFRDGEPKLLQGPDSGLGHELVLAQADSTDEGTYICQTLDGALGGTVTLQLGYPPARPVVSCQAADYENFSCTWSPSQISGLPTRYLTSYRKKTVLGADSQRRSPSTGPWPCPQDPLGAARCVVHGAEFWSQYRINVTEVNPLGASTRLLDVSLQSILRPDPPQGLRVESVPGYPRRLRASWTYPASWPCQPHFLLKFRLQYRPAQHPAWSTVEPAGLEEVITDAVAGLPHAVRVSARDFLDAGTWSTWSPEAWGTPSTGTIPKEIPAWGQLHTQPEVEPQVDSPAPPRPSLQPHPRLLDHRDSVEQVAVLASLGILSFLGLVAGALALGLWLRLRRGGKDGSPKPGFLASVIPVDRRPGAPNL

B1: CGRRAGGSC (SEQ ID NO:1)-displaying phage (peptide, not shown: large carriers)
peptide: CGRRAGGSC
notes: whole phage particles stood in the assay; also called IL-11-mimic phage; IL-11 mimic phage
B2: WIFPWIQL (SEQ ID NO:6)-phage (peptide)
peptide: WIFPWIQL
notes: whole phage particles stood in the assay; also called GRP78-targeting phage clone; not shown: pIII coat protein of fd-based phage (fUSE5 vector)
B3: WDLAWMFRLPVG (SEQ ID NO:7)-phage (peptide)
peptide: WDLAWMFRLPVG
notes: as for B2

Key:
[1] = biological target: T1, IL-11Rα of human prostate cancer cells …; assay: phage overlay on human prostate cancer tissue sections, compared with anti-IL-11Rα antibody staining
[2] = biological target: T2, GRP78 of human prostate cancer cells (DU145 cell surface; human prostate cancer bone metastasis sections) (human, UniProt P11021 19-654); assay: BRASIL aqueous-organic phase separation, phage on intact DU145 cells
T2 construct: whole, on cells; Endogenous protein; used for the intact-cell (BRASIL) assay and for tissue section overlays; also called GRP78 expressed on the membrane of the prostate cancer cells
Procedure: Cell-binding assays. Biopanning and Rapid Analysis of Selective Interactive Ligands (BRASIL) method was used to evaluate phage binding to intact cells. In brief, cultured human prostate cancer-derived DU 145 cells were detached with ethylenediaminetetraacetate (EDTA) and resuspended in Dulbecco's modified Eagle's medium (DMEM) containing 1% BSA at 4×10⁶ cells per ml. The cell suspension (50 μl) was incubated with 10⁹ of […] (SEQ ID NO:6)—phage, […] (SEQ ID NO:7)—phage, or insertless Fd-tet phage (negative control) at 4° C. in constant slow rotation. After 2 hours, the phage/cell mixture (aqueous phase) was gently transferred to the top of a non-miscible organic phase (200 μl solution in a 400 μl Eppendorf tube) consisting of dibutyl phtalate:cyclohexane (9:1 [v:v]; d=1.03 g ml⁻¹) and centrifuiged at 10,000 g for 10 minutes at 4° C. The tube was then snap frozen in liquid nitrogen, the bottom of the tube was sliced off, and the cell-phage pellet was isolated. Cell membrane bound phage were recovered by infection with the host bacteria.
GRP78-binding phage clones bind specifically to prostate cancer cells. Having determined the binding specificity of aptamers to GRP78 in vitro, the binding of filamentous phage clones displaying […] […] (SEQ ID NO:7) (FIG. 5B) 580 to intact DU145 human prostate cancer cells by using an aqueous-organic phase separation was evaluated. […]

[3] = biological target: T3, recombinant GRP78 (Stressgen); assay: phage binding to GRP78 immobilized on microtiter wells, 10^9 TU, bound TU counted
T3 construct: Bought protein; also called Glucose-regulated protein-78; immobilized GRP78
Procedure: In vitro phage binding assays. GRP78, HSP70, HSP90 (all from Stressgen, Victoria, Canada) and bovine serum albumin (BSA) were immobilized on microtiter wells of 96-well plates overnight at 4° C. Wells were washed twice with phosphate-buffered saline (PBS), blocked with PBS containing 3% BSA for 1 hour at room temperature (RT), and incubated with 10⁹ transducing units (TU) of […] (SEQ ID NO:6)-phage, […] (SEQ ID NO:7)-phage, or insertless control phage (Fd-tet) in 50 μl of PBS containing 1.5% BSA. After 2 hours at RT, wells were washed with PBS, and bound phage were recovered by infection with host bacteria (log-phase Escherichia coli K91 kan; OD₆₀₀≈2). Aliquots of the bacterial culture were plated onto Luria-Bertani broth (LB) agar plates supplemented with 40 μg/ml tetracycline and 100 μg/ml kanamycin. Plates were incubated overnight at 37° C., and phage TU were counted in triplicate plates. Increasing concentrations of synthetic peptides […] (SEQ ID NO:6), […] (SEQ ID NO:7)-, and an unrelated control peptide CARAC (SEQ ID NO:9) (Genemed Synthesis Inc., San Francisco, Calif.) were used to evaluate competitive inhibition of phage binding. All peptides were solubilized in a standard stock solution of 10% dimethylsulfoxide (DMSO) and diluted to working concentrations for the assays.
Peptide aptamers bind specifically to immobilized GRP78. […]

T3 sequence (P07823 19-654): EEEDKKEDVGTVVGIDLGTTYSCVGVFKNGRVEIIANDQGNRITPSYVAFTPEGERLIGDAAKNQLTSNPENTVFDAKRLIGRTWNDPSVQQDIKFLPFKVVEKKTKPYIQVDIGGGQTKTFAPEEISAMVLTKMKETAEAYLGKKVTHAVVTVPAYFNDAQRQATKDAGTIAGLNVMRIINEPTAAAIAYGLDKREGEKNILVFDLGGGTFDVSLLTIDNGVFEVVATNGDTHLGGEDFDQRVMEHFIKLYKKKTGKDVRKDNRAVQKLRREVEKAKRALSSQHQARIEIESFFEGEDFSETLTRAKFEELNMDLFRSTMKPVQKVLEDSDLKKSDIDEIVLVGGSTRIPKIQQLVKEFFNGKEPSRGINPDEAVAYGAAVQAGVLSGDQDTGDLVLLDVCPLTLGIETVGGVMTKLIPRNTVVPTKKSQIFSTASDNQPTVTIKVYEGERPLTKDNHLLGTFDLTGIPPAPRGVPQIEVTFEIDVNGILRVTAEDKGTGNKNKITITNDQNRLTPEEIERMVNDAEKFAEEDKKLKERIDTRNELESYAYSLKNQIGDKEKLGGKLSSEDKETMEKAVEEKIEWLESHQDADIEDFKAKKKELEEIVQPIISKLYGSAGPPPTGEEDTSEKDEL
T2 sequence (P11021 19-654): as the sequence (P07823 19-654) above, with F295Y, S631A counted along it

| Binder | binding result [1] | fold binding over control phage (fd-tet) [2] | fold binding over negative control phage (fd-tet) [3] |
| --- | --- | --- | --- |
| B1 | binds |  |  |
| B2 |  | 30 fold | 870 fold |
| B3 |  | 30 fold | 260 fold |
